Molecular target: CCR3 chemokine receptor (human) (UniProt P51677)
Experiment: cell-based or functional assay

Chain of UniProt P51677 (P51677 whole entry): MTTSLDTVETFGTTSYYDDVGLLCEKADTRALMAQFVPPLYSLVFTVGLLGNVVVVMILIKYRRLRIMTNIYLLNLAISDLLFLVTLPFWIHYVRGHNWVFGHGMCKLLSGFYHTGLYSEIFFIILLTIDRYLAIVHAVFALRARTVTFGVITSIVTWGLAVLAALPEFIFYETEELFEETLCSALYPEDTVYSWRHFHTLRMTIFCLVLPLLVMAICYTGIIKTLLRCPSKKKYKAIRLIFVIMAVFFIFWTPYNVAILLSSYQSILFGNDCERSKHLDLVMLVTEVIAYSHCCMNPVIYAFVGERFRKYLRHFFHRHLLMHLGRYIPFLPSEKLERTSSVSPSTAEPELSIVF

chemotactic response of purified human eosinophils to eotaxin; decrease of migration after antisense oligonucleotides against CCR3: 55.6%
Substance: rhEotaxin (Biosource, cat# PMC1434) (from UniProt P51671 24-97) (ligand)

Source: patent US20090215861A1
